{"source": "paper PMC12324117", "biological_target": "LRRC4B (453–576) protein (UniProt Q9NT99)", "sequence (Q9NT99 453-576)": "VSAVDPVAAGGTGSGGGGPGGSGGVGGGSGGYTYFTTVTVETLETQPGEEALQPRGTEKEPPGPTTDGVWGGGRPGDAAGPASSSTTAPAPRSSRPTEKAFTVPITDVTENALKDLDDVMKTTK", "experiment": "ELISA; plates coated with LRRC4B (453–576) protein at 1 µg/ml in 50 mM carbonate buffer pH 9.6; FAM19A5 added; detected with HRP-conjugated C-A5-Ab; OD 450 nm (format as told for the CSF ELISA); n = 10 each"}
{"substance": "MT FAM19A5 protein (ELISA) (natural protein)", "values": [{"measurement": "EC50", "value": 2.56, "unit": "nM"}]}
{"substance": "WT FAM19A5 protein (ELISA) (natural protein)", "values": [{"measurement": "EC50", "value": 0.199, "unit": "nM"}]}
